Experiments:
[1] = target: T1, His-tagged human IL2RA protein (ACROBiosystems Inc., Cat#: ILA-H52H9) (human, UniProt P01589 22-213, limits assumed); assay: SPR (Biacore 8K), antibody captured on Protein A chip, His-tagged IL2RA as analyte
T1 construct: Bought protein; also called hIL2RA-his; not shown: His tag
T1 sequence: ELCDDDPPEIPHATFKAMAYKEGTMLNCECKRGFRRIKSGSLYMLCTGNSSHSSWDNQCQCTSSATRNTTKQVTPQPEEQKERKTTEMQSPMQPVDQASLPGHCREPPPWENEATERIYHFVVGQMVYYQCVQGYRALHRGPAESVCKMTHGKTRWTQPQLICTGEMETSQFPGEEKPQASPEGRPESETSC

[2] = target: T2, monkey (Macaca fascicularis) IL2RA expressed on CHO-S cells (CHO-S-fasIL2RA cells) (monkey (Macaca fascicularis), UniProt Q5MNY4 22-272); assay: flow cytometry on CHO-S-fasIL2RA cells
T2 construct: also called monkey IL2RA
T2 chain: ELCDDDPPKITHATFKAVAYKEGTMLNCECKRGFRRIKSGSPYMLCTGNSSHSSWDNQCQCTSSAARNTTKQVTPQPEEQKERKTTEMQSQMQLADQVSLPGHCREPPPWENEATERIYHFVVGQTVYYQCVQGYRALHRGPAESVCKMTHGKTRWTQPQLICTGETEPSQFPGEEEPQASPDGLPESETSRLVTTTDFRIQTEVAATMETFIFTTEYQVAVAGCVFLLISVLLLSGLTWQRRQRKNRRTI

[3] = target: T3, human IL2RA expressed on CHO-S cells (CHO-S-hIL2RA cells) (human, UniProt P01589 22-272); assay: flow cytometry on CHO-S-hIL2RA cells
T3 sequence: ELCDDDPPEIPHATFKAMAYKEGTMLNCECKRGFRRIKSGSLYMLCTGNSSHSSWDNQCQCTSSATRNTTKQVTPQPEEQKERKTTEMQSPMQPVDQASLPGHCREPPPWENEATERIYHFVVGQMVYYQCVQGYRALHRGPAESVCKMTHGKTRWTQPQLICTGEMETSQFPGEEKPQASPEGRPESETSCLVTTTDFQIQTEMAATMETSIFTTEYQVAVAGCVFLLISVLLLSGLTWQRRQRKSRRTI

Measured: binding result

B1: anti-IL2RA antibody 14C2 (antibody, V domains shown)
VH: QVQLVQSGGGVVQPGRSLRLSCAASGFTFSTYGMHWVRQAPGKGLEWVAVISYDGSDKIYADSVKGRFTISRDNSKNTLFLQMNSLRAEDTAVYYCATGPMENYYYYNMDVWGLGTTVTVSS
VL: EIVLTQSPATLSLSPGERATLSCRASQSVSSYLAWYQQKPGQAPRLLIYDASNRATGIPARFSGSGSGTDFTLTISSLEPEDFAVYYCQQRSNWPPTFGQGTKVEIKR
binds: all assays above

B2: anti-IL2RA antibody 5D9 (antibody, V domains shown)
VH: EVQLVESGGGLVQPGGSLRLSCAASGFTVSSNYMSWVRQTPGKGLELVSFIYSGGITSYADSVRGRFTISRDNSKNTLYLQMNSLRAEDTAVYYCARDDYSNYFDYWGQGTLVTVSS
VL: DIQMTQSPSSVSASVGDRVTITCRASQGISNWLAWYQQKPGKAPKLLIFAASSLQSGVPSRFSGSGSGTDFTLTISSLQPEDFATYYCQQAKSFPITFGQGTRLEIK
notes: Variable regions were cloned into a vector with the human IgG constant region; also called 5D9-IgG1
binds: all assays above

B3: anti-IL2RA antibody 11D2 (antibody, V domains shown)
VH: QVQLVQSGGGVVQPGRSLRLSCAASGFTFTNYAIHWVRQAPGKGLEWVAVIWSDGDNKYYADSVKGRFTISRDNSKNTLYLQMNSLRAEDTAVYYCARTPWYCTSTNCYTGYYYYGMDVWGQGTTVTVSS
VL: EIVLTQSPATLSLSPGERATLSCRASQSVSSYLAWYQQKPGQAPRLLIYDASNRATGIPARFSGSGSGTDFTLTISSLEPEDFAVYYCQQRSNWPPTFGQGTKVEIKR
binds: all assays above

B4: anti-IL2RA antibody 7B5 (antibody, V domains shown)
VH: EVQLQQWGAGLLKPSETLSLTCAVYGGSFSGYYWNWIRQPPGKGLEWIGESDHSGSTHFNPSLKSRVTISLDTSKNQFSLKLNSVTAADTAVYFCARAPDYGDFDHWGQGILVTVSS
VL: DIQMTQSPDSLAVSLGERATINCRSSQSVLHSSTNKRYLAWYQQKPRQPPKLLIYWTSTRESGVPDRFSGSGSGTDFTLTISSLQAEDVAVYFCQQYYSTPYTFGQGTKLEIK
binds: all assays above

B5: anti-IL2RA antibody 11C12 (antibody, V domains shown)
VH: QVQLVQSGGGLVQPGGSLRLSCSASGLTFSSYGMHWVRQAPGKGLDYVSGITNNGGRTEYADSVKGRFTISRDNSKNTLYLQMSSLRTEDTAVYYCVKEDWNGQYYYYAMDVWGQGTTVTVSS
VL: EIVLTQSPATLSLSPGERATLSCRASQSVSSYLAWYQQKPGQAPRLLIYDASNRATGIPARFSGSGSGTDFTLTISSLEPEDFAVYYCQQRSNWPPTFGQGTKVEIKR
binds: all assays above

B6: anti-IL2RA antibody 13F9 (antibody, V domains shown)
VH: QVQLVQSGAEVKRPGASVKVSCKASGYTFTTYAIHWVRQAPGQRLEWMGWINADNGYTKYSQNFQGRVTITRDTSASTAYMDLSTLRSEDTALYYCARTPRYCTSTSCSTGYYYYGMDVWGQGTTVTVSS
VL: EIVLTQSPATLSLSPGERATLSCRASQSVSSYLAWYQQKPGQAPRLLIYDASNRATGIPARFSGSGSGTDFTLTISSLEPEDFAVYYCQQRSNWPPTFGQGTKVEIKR
binds: all assays above

B7: anti-IL2RA antibody 11C3 (antibody, V domains shown)
VH: QVQLVQSGAEVKKPGASVKVSCKASGYTFNSYYIHWVRQAPGQGLEWLGIINPTGGRTIYAQKFQGRVTMTRDTSTTTVDMELSSLRSEDTAVYYCARVPGYCKDTSCQDFYYYYGMDVWGQGSTVTVSS
VL: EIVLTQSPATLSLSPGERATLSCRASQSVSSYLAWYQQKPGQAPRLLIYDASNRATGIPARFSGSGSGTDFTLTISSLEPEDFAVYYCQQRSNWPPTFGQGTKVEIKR
binds: all assays above
